From the nanobody polyreactivity screen of Harvey et al. (2022) come the findings set out here.

The series in a line: yeast display, Sf9 membrane polyspecificity reagent, FACS + sequencing; frameworks hold sequencing errors. Put shortly: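 Nanobodies from a synthetic yeast display library (Saccharomyces cerevisiae BJ5465), induced 36–48 hours with galactose, were stained 1 hour at 4 °C with 10% biotinylated, detergent-solubilized Sf9 membrane reagent, enriched on streptavidin microbeads, then FACS-sorted. Anti-HA (expression) and streptavidin (reagent binding) fluorescence set low and high (top ~1%) gates. Polyreactivity labels come from the gate of origin. Genes were colony-PCR amplified, MiSeq 2 × 250 sequenced and filtered by CDR length.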
For “QVQLVESGGGLVQAGGSLRLSCAASGRIFLTKAMGWYRQAPGKERELVADISRGGSTYADSVKGRFTISRDNAKNTVYLQMNSLKPEDTAVYYCAADEYSPGDSRTRYDYWGQGTQVTVSS”, the “polyreactivity (PSR sort gate)” value is given as “low polyreactivity”.

Turning to “QVQLVESGGGLVQAGGSLRLSCAASGRIFLTNAMGWYRQAHGKERELVADISRGGSTYADSVKGRFTISRDNAKNTVYLQMNSLKPEDTAVYYCAADEYSPGDSRTRYDYWGQGTQVTVSS”, the “polyreactivity (PSR sort gate)” value was “low polyreactivity”.

With “QVQLVESGGGLVQAGGSLRLSCAASGRIFLVYAMGGSRQAPGKDRELVAAISWSTGSTYYADSVKGRFTISRDNAKNTVYLQMNSLKPEDTAVYYCAAEPELDEYEHDYWGQGTQVTVSS”, the “polyreactivity (PSR sort gate)” value is reported as “low polyreactivity”.

As for “QVQLVESGGGLVQAGGSLRLSCAASGRIFLVYAMGWSRPAPGKERELVAAISYSGGRTYYADSVKGRFTISRDNAKNTVYLQMNSLKPEDTAVYYCAASPRYSYLAQGLDYDYWGQGTQVTVSS”, the “polyreactivity (PSR sort gate)” value is listed as “high polyreactivity”.

For the sequence “QVQLVESGGGLVQAGGSLRLSCAASGRIFLWYAMGWSRQAPGKERELVAGISSGASTYYADSVKGRFTISRDNAKNTVYLQMNSLKPEDTAVYYCAAPYDRLTGWSRYDYWGQGTQVTVSS”, the “polyreactivity (PSR sort gate)” value is recorded as “high polyreactivity”.

Consider “QVQLVESGGGLVQAGGSLRLSCAASGRIFLWYAMGWYRQAPGKERELVAAISSGGSTKYADSVKGRFTISRDNAKNTVYLQMNSLKPEDTAVYYCAATRKYSYVTYYYWGQGTQVTVSS”, for which the “polyreactivity (PSR sort gate)” value is recorded as “high polyreactivity”.

In the case of “QVQLVESGGGLVQAGGSLRLSCAASGRIFLWYAMGWYRQAPGKERELVASITRSGVTTYYADSVKGRFTISRDNAKNTVYLQMNSLKPEDTAVYYCAAELYGWSGDTNDYWGQGTHVTVSS”, the “polyreactivity (PSR sort gate)” value was “low polyreactivity”.

For “QVQLVESGGGLVQAGGSLRLSCAASGRIFLYNAMAWYRQAPGKERELVASISSGDTTNYADSVKGRFTISRDNAKNTVYLQMNSLKPEDTAVYYCNAEYGTPYSWFDYWGQGTQVTVSS”, the “polyreactivity (PSR sort gate)” value is given as “low polyreactivity”.

For “QVQLVESGGGLVQAGGSLRLSCAASGRIFLYNAMGWYRQAPGKEREFVATISYSGGRTNYADSVKGRFTISRDNAKNTVYLQMNSLKPEDTAVYYCAARWPWFYAHAYDYWGQGTQVTVSS”, the “polyreactivity (PSR sort gate)” value is “high polyreactivity”.

On to “QVQLVESGGGLVQAGGSLRLSCAASGRIFLYNAMGWYRQAPGKERELVASISSGDTTNYADSVKGRFTISRDNAKKTVYLQMNSLKPEDTAVYYCAADGQYSVIVKYDSWGQGTQVTVSS”, for which the “polyreactivity (PSR sort gate)” value is recorded as “low polyreactivity”.

Take “QVQLVESGGGLVQAGGSLRLSCAASGRIFLYYTMGWYRQAPGKERELVADITWRGGSTYYADSVKGRFTISRDNAKNTVYLQMNSLKPVDTAVYYCNAVSVSSNRSDYWGQGTQVTVSS”: the “polyreactivity (PSR sort gate)” value is on record as “low polyreactivity”.

Consider “QVQLVESGGGLVQAGGSLRLSCAASGRIFLYYTMGWYRQAPGKERELVATIRSGDSTNYADSVKGRFTISRDNAKNTVYLQMNSLKPEDTAVYYCAADWDIFQQGANGAPYDYWGQGTQVTVSS”, for which the “polyreactivity (PSR sort gate)” value is given as “low polyreactivity”.

As for “QVQLVESGGGLVQAGGSLRLSCAASGRIFNANAMGWYRHAPGKERELVAAISSSGGSTYYADSVKGRFTISRDNAKNTVYLQMNSLNPEDTAVYYCNADWGWRYSSDFDYWGQGTQVTVSS”, the “polyreactivity (PSR sort gate)” value is reported as “low polyreactivity”.

Turning to “QVQLVESGGGLVQAGGSLRLSCAASGRIFNAYAMGWYRQAPGKERELVAAISRSGGRTYYADSVKGRFTISRDNAKNNVYLQMNILKPEDTAVYYCAKDFFEHSPVSHTYSSSKYDYWGQGTQVTVSS”, the “polyreactivity (PSR sort gate)” value is reported as “low polyreactivity”.

Regarding “QVQLVESGGGLVQAGGSLRLSCAASGRIFNEYGMGWYRQAPGKERELVAAITDGTTTYYADSVKGRFTISRDNAKNTVYLQMNSLKPEDTAVYYCAASSTWYGYYIFVFRAYDYWGQGTQVTVSS”, the “polyreactivity (PSR sort gate)” value is given as “low polyreactivity”.

As for “QVQLVESGGGLVQAGGSLRLSCAASGRIFNFYAMGWYRQAPGKERELVASITGSTGSTYYADSVKGRFTISRDNAKNTVYLQMNSLKPEDTAVYYCNTYRVTRDYYWGQGTQVTVSS”, the “polyreactivity (PSR sort gate)” value is recorded as “low polyreactivity”.

In the case of “QVQLVESGGGLVQAGGSLRLSCAASGRIFNFYAMGWYRQAPGKERELVASITSGGRTSYADSVKGRFTISRDNAKNTVYLQMNSLKPEDTAVYYCAAKSPLKTYYFTSFRYYYWGQGTQVTVSS”, the “polyreactivity (PSR sort gate)” value was “high polyreactivity”.

As for “QVQLVESGGGLVQAGGSLRLSCAASGRIFNGYAMGWYRQAPGKERELVASITSAGSTYFADSVTGRVTISRDNAKNTVYVQMNRLKPEDTAVYYCAADSYSVYYYTYDSWGQGTQVTVSS”, the “polyreactivity (PSR sort gate)” value was “low polyreactivity”.

As for “QVQLVESGGGLVQAGGSLRLSCAASGRIFNGYPIGWYIQAPGKEREFVATISRSGGCTYYADSVKGRFTISRDNAKNTVYLQMISLKPEDTAVYYCAKTYPAKWEYDYWGQGTQVTVSS”, the “polyreactivity (PSR sort gate)” value is on record as “low polyreactivity”.

Regarding “QVQLVESGGGLVQAGGSLRLSCAASGRIFNIYAMGWYRQAPGKERELVAAIRWNGGSTYYADSVKGRFTISRDNAKNTVYLQMNSLKPEDTAVYYCAARHPLYRVQHEYWGQGTQVTVSS”, the “polyreactivity (PSR sort gate)” value is “low polyreactivity”.

On to “QVQLVESGGGLVQAGGSLRLSCAASGRIFNKNAMGWYRQPPGKEREFVAAISRSGGRTYYADSVKGRFTISRDNAKNTVYLQMNSLKPEDPAVYFCAAEYRGVPRVVVDYDYWGQGTQVTVSS”, for which the “polyreactivity (PSR sort gate)” value is given as “high polyreactivity”.

Take “QVQLVESGGGLVQAGGSLRLSCAASGRIFNLYAMGWYRQAPGKERELVAAIRGRGTSTYYADSVKGRFTISRDNAKNTVYLQMNSLKPEDTAVYYCATTSRELGELRIFDYWGQGTQVTVSS”: the “polyreactivity (PSR sort gate)” value is “low polyreactivity”.

On to “QVQLVESGGGLVQAGGSLRLSCAASGRIFNLYAMGWYRQAPGKERELVAAISSGGSTYYADSVKGRFTISRDNAKNTVYLQMNSLKPEDTAVYYCAAKNGDRYARGYWGQGTQVTVSS”, for which the “polyreactivity (PSR sort gate)” value was “high polyreactivity”.

“QVQLVESGGGLVQAGGSLRLSCAASGRIFNLYAMGWYRQAPGKERELVAAISWRGGSTYYADSVKGRFTISRDNAKNTVYLQMNSLKPEDTAVYYCAATFFTYVYRYYYWGQGTQVTVSS”: the “polyreactivity (PSR sort gate)” value is given as “high polyreactivity”.

Regarding “QVQLVESGGGLVQAGGSLRLSCAASGRIFNNYAMGWYRQAPGKERELVASITSGGSTNYADSVKGRFTISRDNAKNTVYLHMNSLKPEDTAVYYCNAPRGNRYHTGGYWGQGTQVTVSS”, the “polyreactivity (PSR sort gate)” value is on record as “low polyreactivity”.

On to “QVQLVESGGGLVQAGGSLRLSCAASGRIFNQYGMGWYRQAPGKERELVAAIRSGDSTNYADSVKGRFTISRDNAKNTVYLQMNSLKPVDTAVYYFNAYLSPKQPLSPPDPTFEGGYWGQGTQVTVSS”, for which the “polyreactivity (PSR sort gate)” value was “low polyreactivity”.

On to “QVQLVESGGGLVQAGGSLRLSCAASGRIFNRNAMGWYRQAPGKERELVAAISSSGGSTYYADSVKGRFTISRDTAKNTVYLQMNSLKPEDTAVYYCAAVTQSYGYYYWGQGTQVTVSS”, for which the “polyreactivity (PSR sort gate)” value was “high polyreactivity”.

“QVQLVESGGGLVQAGGSLRLSCAASGRIFNRNAMGWYRQAPGKERELVAAITRGGRTNYADSVKGRFTISRDNAQNTVYLHMNSLKPEDTAVYYCAAAYYGSHCRYDYWGQGTQVTVSS”: the “polyreactivity (PSR sort gate)” value is on record as “high polyreactivity”.

Regarding “QVQLVESGGGLVQAGGSLRLSCAASGRIFNRNAMGWYRQAPGKERELVATISFNDGSTYYADSVKGRFRISRDIAKNTVYLQMNSLKPEDTAVYYCAKEGYVFEYDYWGKGTQVTVSS”, the “polyreactivity (PSR sort gate)” value is listed as “low polyreactivity”.

Consider “QVQLVESGGGLVQAGGSLRLSCAASGRIFNRYAMGWYRQAPGKERELVAAINYRGSSTYYADSVKGRFTISRDNAKNTGYLQMNSLKPEVTAVYYCKTYGQTDTYWRYYYWGQGTQVTVSS”, for which the “polyreactivity (PSR sort gate)” value is “high polyreactivity”.

On to “QVQLVESGGGLVQAGGSLRLSCAASGRIFNRYAMGWYRQAPGKERELVAAISASGDNTYYADSVKGRFTISRDNAKKNVYLQMNSLKPEDTAVYYCAARYYTYLHFRMYYWGQGTQVTVSS”, for which the “polyreactivity (PSR sort gate)” value is listed as “high polyreactivity”.

“QVQLVESGGGLVQAGGSLRLSCAASGRIFNSYAMGCYRQAPGKERELVAAINWTDVSTYYADSVKGRFTISRDNAKNTVYLQMNSLKPEDTAVYYCAAVRWGSYTLSDDYWGQGTQVTVSS”: the “polyreactivity (PSR sort gate)” value is “low polyreactivity”.

Take “QVQLVESGGGLVQAGGSLRLSCAASGRIFNWYGMGWYRQAPGKERELVATISSSGDSTYYADSVKGRFTISRDNAKNTVYLQMNSLKPEDTAVYYCAKRARYKFGYWGQGTQVTVSS”: the “polyreactivity (PSR sort gate)” value was “high polyreactivity”.

As for “QVQLVESGGGLVQAGGSLRLSCAASGRIFNYNALGWYRQAPGKESELVATITYIGTGTYYADSVKGRFTISRDNAKTTVYLQMNSLKPEDTAVYYCAASYRSRVWWRFDYWGQGTQVTVSS”, the “polyreactivity (PSR sort gate)” value is recorded as “high polyreactivity”.

As for “QVQLVESGGGLVQAGGSLRLSCAASGRIFNYYAMGSYRQAPGKERDLVAAITSRGGSTYYADSVKGRFTISRDNAKNTVYLQMNSLNPEDTAVYYCNTRVWYPGTIHPVDYWGQGTQVTVSS”, the “polyreactivity (PSR sort gate)” value is recorded as “low polyreactivity”.

Take “QVQLVESGGGLVQAGGSLRLSCAASGRIFNYYAMGWYRLAPGKERELVAAINSGGSTYADSVKGRFTISRDNAKNTVYLEMNSLKPEDTAVYYCANDGQLQSGRERPSGYDHWGQGTQVTVSS”: the “polyreactivity (PSR sort gate)” value is “low polyreactivity”.

For “QVQLVESGGGLVQAGGSLRLSCAASGRIFNYYAMGWYRQAPGKEMELVAVITYSAGRTYYADSVKGRFTISRDNAKNTVYLQMNSLKPEDTAVYYCNADGWVSVSKHYYYWGQGTQVTVSS”, the “polyreactivity (PSR sort gate)” value is recorded as “low polyreactivity”.

With “QVQLVESGGGLVQAGGSLRLSCAASGRIFNYYAMGWYRQAPGKERELVAAINSGGSTYADSVKGRFTISRDNAKNTVYLQMNSLKPEDTAVYYCAKDGQLQSGRERPSGYDHWGQGTQVTVSS”, the “polyreactivity (PSR sort gate)” value is reported as “low polyreactivity”.

For “QVQLVESGGGLVQAGGSLRLSCAASGRIFNYYAMGWYRQAPGKERELVAAINWSGVRTYYADSVKGRFTISRDNAKNTVYLQMNSLKPEDTEVYYCARDAGAAYGYYSWGQGTQVTVSS”, the “polyreactivity (PSR sort gate)” value was “high polyreactivity”.

“QVQLVESGGGLVQAGGSLRLSCAASGRIFNYYAMGWYRQAPGKERELVASITSRGGTTYYADSVKGRFTISRDKAKKTVYLQMNSLIPEDTAVYYCAAFTRPVSRRSRMNYWGQGTQVTVSS”: the “polyreactivity (PSR sort gate)” value is “high polyreactivity”.

With “QVQLVESGGGLVQAGGSLRLSCAASGRIFPAYVMGWYRQAHGKERELVATIDNGGGTYYADSVKGRFTISRDNAKNTVYLQMNSLKPEDTAVYYCARDRHVRWGLKMDYSGQGTQVTVSS”, the “polyreactivity (PSR sort gate)” value is “low polyreactivity”.
